According to publication doi:10.1101/2023.12.21.572875, “Structure of the human systemic RNAi defective transmembrane protein 1 (hSIDT1) reveals the conformational flexibility of its lipid binding domain” (bioRxiv, 2024):

Molecular target: the molecule itself
Test: cryo-EM structure; single-particle cryo-EM of purified hSIDT1-GFP at 1 mg/ml in 0.5% digitonin, 25 mM Tris-HCl pH 7.5, 200 mM NaCl, with 100 uM fluorinated octyl-maltoside; no cholesterol or analogues; blotted at 18°C; C2 symmetry imposed

B1: human systemic RNAi-defective transmembrane family member 1 (hSIDT1), full length, C-terminal GFP-Strep-tag-II fusion (natural protein, UniProt Q9NXL6 20-827, looked up)
chain: ASPGHPAKSPRQPPAPRRDPFDAARGADFDHVYSGVVNLSTENIYSFNYTSQPDQVTAVRVYVNSSSENLNYPVLVVVRQQKEVLSWQVPLLFQGLYQRSYNYQEVSRTLCPSEATNETGPLQQLIFVDVASMAPLGAQYKLLVTKLKHFQLRTNVAFHFTASPSQPQYFLYKFPKDVDSVIIKVVSEMAYPCSVVSVQNIMCPVYDLDHNVEFNGVYQSMTKKAAITLQKKDFPGEQFFVVFVIKPEDYACGGSFFIQEKENQTWNLQRKKNLEVTIVPSIKESVYVKSSLFSVFIFLSFYLGCLLVGFVHYLRFQRKSIDGSFGSNDGSGNMVASHPIAASTPEGSNYGTIDESSSSPGRQMSSSDGGPPGQSDTDSSVEESDFDTMPDIESDKNIIRTKMFLYLSDLSRKDRRIVSKKYKIYFWNIITIAVFYALPVIQLVITYQTVVNVTGNQDICYYNFLCAHPLGVLSAFNNILSNLGHVLLGFLFLLIVLRRDILHRRALEAKDIFAVEYGIPKHFGLFYAMGIALMMEGVLSACYHVCPNYSNFQFDTSFMYMIAGLCMLKLYQTRHPDINASAYSAYASFAVVIMVTVLGVVFGKNDVWFWVIFSAIHVLASLALSTQIYYMGRFKIDLGIFRRAAMVFYTDCIQQCSRPLYMDRMVLLVVGNLVNWSFALFGLIYRPRDFASYMLGIFICNLLLYLAFYIIMKLRSSEKVLPVPLFCIVATAVMWAAALYFFFQNLSSWEGTPAESREKNRECILLDFFDDHDIWHFLSATALFFSFLVLLTLDDDLDVVRRDQIPVF
modifications: lacks complex N-glycosylation; density for N-acetylglucosamine at the predicted N-glycosylation sites N57, N67, N83, N136, N282 (not modelled)
notes: human SIDT1 (systemic RNAi-defective transmembrane family member 1), full length, codon-optimized synthetic gene (GenScript); UniProt Q9NXL6 printed for the AlphaFold model used in model building; Homodimer with C2 symmetry; Not modelled in the structure: the first 40 residues, cytosolic loops CL1 and CL4, Q278-N286 and the C-terminal GFP; The native signal peptide may be removed in the mature …
stoichiometry N: 2
